# Assays:
# [1] = target: GST-Src SH2 [GST: P08515]; test: fluorescence polarization, GST-Src SH2 titrated on 10 nM FITC-pTyrEEI, one-site binding model
# [2] = target: GST-Src SH2 [GST: P08515]; test: fluorescence polarization competition; competitor FITC-pTyrEEI on GST-Src SH2
# [3] = target: GST-Src SH2 [GST: P08515]; test: fluorescence polarization competition, EC50 of pnY peptide against that of pTyr peptide
# Sequence of GST-Src SH2 [GST: P08515] (P08515 whole entry): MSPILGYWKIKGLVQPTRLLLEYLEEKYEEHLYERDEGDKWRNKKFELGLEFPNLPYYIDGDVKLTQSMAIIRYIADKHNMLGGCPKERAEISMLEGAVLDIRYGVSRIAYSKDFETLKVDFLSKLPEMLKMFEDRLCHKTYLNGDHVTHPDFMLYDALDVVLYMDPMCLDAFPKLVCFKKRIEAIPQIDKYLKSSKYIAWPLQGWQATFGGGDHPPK
Substance,Kd [1] [nM],EC50 [2] [nM],Decrease in binding affinity with SH2 (against pTyr) [3] [fold]
FITC-pTyrEEI (peptide),280,–,–
pnYEEI (peptide),–,12800,17
pTyrEEI (peptide),–,740,–
